{"source": "paper doi:10.1101/2023.02.08.527602", "about": "(bioRxiv, 2023)", "biological_target": "Soluble SorCS2 (extracellular domain of SorCS2) (UniProt Q96PQ0 51-1078)", "sequence (Q96PQ0 51-1078)": "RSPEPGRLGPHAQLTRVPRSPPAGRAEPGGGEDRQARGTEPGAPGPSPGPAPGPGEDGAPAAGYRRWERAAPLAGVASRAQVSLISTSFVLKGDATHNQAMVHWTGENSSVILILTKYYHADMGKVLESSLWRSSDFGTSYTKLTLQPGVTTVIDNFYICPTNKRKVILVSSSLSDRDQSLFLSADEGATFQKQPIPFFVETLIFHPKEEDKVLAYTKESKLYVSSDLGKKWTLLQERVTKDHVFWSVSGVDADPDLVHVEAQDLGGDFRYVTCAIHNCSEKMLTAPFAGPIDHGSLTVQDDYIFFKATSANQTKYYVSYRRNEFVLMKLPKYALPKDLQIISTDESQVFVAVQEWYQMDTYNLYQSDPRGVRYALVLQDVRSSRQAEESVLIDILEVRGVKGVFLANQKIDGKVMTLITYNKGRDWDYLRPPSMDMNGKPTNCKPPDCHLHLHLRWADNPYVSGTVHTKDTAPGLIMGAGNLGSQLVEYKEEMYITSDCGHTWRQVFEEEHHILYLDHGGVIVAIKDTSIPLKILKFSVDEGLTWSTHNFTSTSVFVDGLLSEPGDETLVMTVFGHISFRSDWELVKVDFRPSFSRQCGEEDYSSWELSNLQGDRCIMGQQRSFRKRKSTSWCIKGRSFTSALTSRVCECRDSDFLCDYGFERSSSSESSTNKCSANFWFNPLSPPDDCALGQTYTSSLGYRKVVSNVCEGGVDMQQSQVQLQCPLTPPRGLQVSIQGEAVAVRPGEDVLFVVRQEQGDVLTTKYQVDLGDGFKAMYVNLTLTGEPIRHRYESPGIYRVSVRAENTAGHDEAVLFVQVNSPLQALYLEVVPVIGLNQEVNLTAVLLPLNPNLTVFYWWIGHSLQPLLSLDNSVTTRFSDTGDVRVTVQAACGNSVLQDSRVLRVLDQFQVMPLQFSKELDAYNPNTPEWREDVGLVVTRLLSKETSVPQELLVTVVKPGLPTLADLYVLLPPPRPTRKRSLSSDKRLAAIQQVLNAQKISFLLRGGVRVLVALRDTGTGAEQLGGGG", "test": "SPR"}
{"binder": "human progranulin (hPGRN) used in SPR (ligand, UniProt P28799 18-593, looked up) TRCPDGQFCPVACCLDPGGASYSCCRPLLDKWPTTLSRHLGGPCQVDAHCSAGHSCIFTVSGTSSCCPFPEAVACGDGHHCCPRGFHCSADGRSCFQRSGNNSVGAIQCPDSQFECPDFSTCCVMVDGSWGCCPMPQASCCEDRVHCCPHGAFCDLVHTRCITPTGTHPLAKKLPAQRTNRAVALSSSVMCPDARSRCPDGSTCCELPSGKYGCCPMPNATCCSDHLHCCPQDTVCDLIQSKCLSKENATTDLLTKLPAHTVGDVKCDMEVSCPDGYTCCRLQSGAWGCCPFTQAVCCEDHIHCCPAGFTCDTQKGTCEQGPHQVPWMEKAPAHLSLPDPQALKRDVPCDNVSSCPSSDTCCQLTSGEWGCCPIPEAVCCSDHQHCCPQGYTCVAEGQCQRGSEIVAGLEKMPARRASLSHPRDIGCDQHTSCPVGQTCCPSLGGSWACCQLPHAVCCEDRQHCCPAGYTCNVKARSCEKEVVSAQPATFLARSPHVGVKDVECGEGHFCHDNQTCCRDNRQGWACCPYRQGVCCADRRHCCPAGFRCAARGTKCLRREAPRWDAPLRDPALRQLL", "values": [{"measurement": "Kd", "result": "~3", "unit": "nM"}]}
